Measurements from publication PMC8413462, “Eukaryotic Box C/D methylation machinery has two non-symmetric protein assembly sites” (Scientific Reports, 2021).

B1: fibrillarin from Pyrococcus furiosus (enzyme, P. furiosus, UniProt Q8U4M2 1-227, looked up)
chain: MVEVKKHKFPGVYVVIDDDGSEKIATKNLVPGQRVYGERVIKWEGEEYRIWNPHRSKLGAAIVNGLKNFPIKPGKSVLYLGIASGTTASHVSDIVGWEGKIYGIEFSPRVLRELVPIVEERRNIIPILGDATKPEEYRALVTKVDVIFEDVAQPTQAKILIDNAKAYLKRGGYGMIAVKSRSIDVTKEPEQVFKEVERELSEYFEVIERLNLEPYEKDHALFVVRKP
notes: fibrillarin, Pyrococcus furiosus, full-length gene amplified from genomic DNA, UniProtKB Q8U4M2; Cloned into pET-M11 with a TEV-cleavable N-terminal His6-Tag; source: E. coli BL21(DE3), purified (heat step at 80 °C, HisTrap, TEV cleavage, reverse HisTrap); not shown: His6, N-terminal, cleaved
B2: Nop5 from Pyrococcus furiosus (natural protein, P. furiosus, UniProt Q8U4M1 1-402, looked up)
chain: MKAFISENVRGIYAFDENGNLIEKRYFTDKPEKVLDQLLKGEITKDLEELLNSLKEKGYDEFVFEHPELSRRAKELGFSATTEFPNIAGERLRSNPEEFLGENWFEEYYKVGVALTRMRIQEQSGARDKMVIQAIEALDDVDKVINLLVARLREWYSLHFPELDELLPKHPQYVAFVKTVGHRDNINEEVLRELGLSEEKIKKILEAKEKTMGAWMDQTDIEVVRQLAEEIDRLYQLRKKLEDYIDRAMDDVAPNLKALVGAKLAARLISLAGGLRELAMMPSSTIQVLGAEKALFRHLRTGAKPPKHGVIYQYPAINRSPWWQRGKIARALAGKLAIAARVDYFSGEYIAEELKKELEARIREIKEKYPKPPKRKREERKGKKPWKKDKKKKKKKEKPRRR
notes: Nop5, Pyrococcus furiosus, full-length gene amplified from genomic DNA, UniProtKB Q8U4M1; Cloned into pET-M11 with a TEV-cleavable N-terminal His6-Tag; also called Nop5_(2) (homodimer); source: E. coli BL21(DE3), purified (heat step at 80 °C, HisTrap, TEV cleavage, reverse HisTrap); not shown: His6, N-terminal, cleaved
B3: Snu13 from Saccharomyces cerevisiae (natural protein, S. cerevisiae, UniProt P39990 1-126, looked up)
chain: MSAPNPKAFPLADAALTQQILDVVQQAANLRQLKKGANEATKTLNRGISEFIIMAADCEPIEILLHLPLLCEDKNVPYVFVPSRVALGRACGVSRPVIAASITTNDASAIKTQIYAVKDKIETLLI
notes: Snu13, S. cerevisiae, full-length SNU13 gene, codon-optimised synthetic gene, UniProtKB P39990; Cloned into pET-M11 with a TEV-cleavable N-terminal His6-Tag; also called Sc Snu13; source: E. coli BL21 (DE3), purified (HisTrap, QTrap flow-through, TEV cleavage, reverse HisTrap); not shown: His6, N-terminal, cleaved

Legend:
[1] = target: B2; assay: SEC; Nop5 and fibrillarin mixed 1:1.1, 15 min at 80 °C, cooled to room temperature; Superdex S200 Increase 10/300 GL; 20 mM sodium phosphate, 500 mM NaCl, pH 6.6; settings: both partners purified
[2] = target: the molecule itself; assay: as above
[3] = target: T1, Nop5_(2)–Fib2 complex from Pyrococcus furiosus (P. furiosus, UniProt Q8U4M1 1-402; Q8U4M2 1-227); assay: SEC-MALS; RNP assembled with yeast guide RNA snR51, Snu13 and Nop5_(2)–Fib2; Superdex S200 Increase 10/300 GL, miniDawn TREOS, Optilab T-rex; the guide RNA is part of the particle; settings: both partners purified
T1 construct: Nop5, Pyrococcus furiosus, full-length, UniProtKB Q8U4M1; fibrillarin, Pyrococcus furiosus, full-length, UniProtKB Q8U4M2; Formed beforehand and then mixed with Snu13 and guide RNA (1:2:1); also called Nop5_(2)–Fib2 tetramer; source: E. coli BL21(DE3), each protein purified; mixed 1:1.1, 15 min at 80 °C, complex purified by size-exclusion chromatography; not shown: His6, N-terminal, cleaved; …
T1 sequence (looked up) 1: B2 chain
T1 sequence (looked up) 2: B1 chain

[4] = target: T1, Nop5_(2)–Fib2 complex from Pyrococcus …; assay: SEC-MALS; RNP assembled with archaeal guide RNA sR26, Snu13 and Nop5_(2)–Fib2; Superdex S200 Increase 10/300 GL, miniDawn TREOS, Optilab T-rex; the guide RNA is part of the particle; monomeric and dimeric RNP peaks partially overlapped; settings: both partners purified

Binder: B1
- binding result [1]: binds

Binder: B2
- binding result [2]: binds

Binder: B3
- stoichiometry N [3]: 1 copies per Nop5_(2)–Fib2 tetramer
- stoichiometry N [4]: 2 copies per Nop5_(2)–Fib2 tetramer
